Reference: US20250388643A1, “GLUCAGON-LIKE PEPTIDE-2 COMPOSITIONS AND METHODS OF MAKING AND USING SAME” (Amunix Pharmaceuticals, Inc., priority 2011, published 2025)
“Also recorded” adds a separate entry of the source. Like-named read-outs stand apart in the source and are kept apart here. Marks after values point to notes of the source that are not given here.

Key:
[1] = cynomolgus monkey, in vivo
Procedure: The fusion protein GLP2-2G-XTEN_AE864 was evaluated for its pharmacokinetic properties in male cynomolgus monkeys following either subcutaneous or intravenous administration of the fusion protein at a single dosage level. Three male cynomolgus monkeys were injected IV and 3 male cynomolgus monkeys were injected SC with 2 mg/kg (25 nmol/kg) GLP2-2G-XTEN at time 0. Blood samples were collected from each monkey into prechilled heparinized tubes at pre-dose and at approximately 0.083 h (5 min), 1, 2, 4, 8, 24, 48, 72, 96, 120, 168, 216, 264, and 336 hours after administration of the fusion protein for the first phase of the study. Animals were allowed to “wash-out” for a 6 week period (4 weeks post-last collection time point of Phase 1), the groups were crossed over (SC to IV and IV to SC), and dosed again with the same dose of GLP2-2G-XTEN fusion protein. Blood samples were collected at pre-dose and at approximately 0.083 h (5 min), 1, 2, 4, 8, 24, 48, 72, 96, 120, 168, 216, 264, 336, 384, 432, and 504 hours post-dose in the second phase of the study. All blood samples were processed into plasma by centrifugation and split into two aliquots for analysis by ELISA. The samples were analyzed for fusion protein concentration, performed by anti-GLP2/anti-XTEN ELISA (AS1705) and the results were analyzed using WinNonLin to obtain the PK parameters.

[2] = set-up: species or system human
Excerpt: The cumulative results of the PK analyses were used to perform allometric scaling of GLP2-2G_AE864 terminal half-life, clearance and volume of distribution using data from three species (mouse, rat and monkey). Pharmacokinetic values for a 70 kg human were predicted by extrapolating the log linear relationship between body weight and each pharmacokinetic parameter, as shown in FIG. 17. […] The terminal half-life in humans can also be estimated using the predicted values for clearance (Cl) and volume of distribution (Vd) as 0.693×Vd/Cl.

[3] = Analytical size exclusion HPLC of GLP2-2G-XTEN (apparent molecular weight); type: physicochemical
Procedure: Gel filtration analysis was performed using a Phenomenex BioSep-SEC-s4000 (7.8 mm×600 mm) column. 20 μg or AP690 GLP2-2G-XTEN fusion protein were analyzed at a flowrate of 0.5 ml/min with 50 mM Phosphate pH 6.5, 300 mM NaCl mobile phase. Elution was monitored using OD215 nm. Column calibration was performed using a size exclusion check standard from Phenomenex, with the following markers: thyroglobulin (670 kDa), IgG (156 kDa), BSA (66 kDa) and ovalbumin ([…]). The result (FIG. 11B) indicated an apparent molecular weight of 1002 kDa for the fusion protein of 83.1 kDa actual weight, for an apparent molecular weight factor of […].

[4] = test system: indomethacin-induced intestinal inflammation in Wistar rats; assay: Rat Crohn's Disease indomethacin-induced intestinal inflammation model, Study 1; type: in vivo
Procedure: To determine the efficacy of GLP2-XTEN using single dose or qd dosing, the GLP2-2G-XTEN-AE864 fusion protein was evaluated in a rat model of Crohn's Disease of indomethacin-induced intestinal inflammation in three separate studies.
Study 1: Intestinal inflammation was induced in eighty male Wistar rats (Harlan Sprague Dawley) using indomethacin administered on Days 0 and 1 of the experiment. The rats were divided into seven treatment groups for treatment according to Table 19.
All treatments were administered per the schedule starting on Day −3 of the experiment. Body weights were determined daily. Groups 3 and 5 were dosed equimolar/day. On Day 2 (24 hours post-2nd indomethacin dose), the animals were prepped for sacrifice and analysis. Thirty minutes prior to sacrifice, the rats were injected intravenously with 1 ml 1% Evans Blue dye, in order to visualize ulcers and extent of inflammation by histopathology analysis. The rats were anesthetized (SOP 1810), blood samples were removed to determine the concentration of GLP-2-2G-XTEN using the anti-XTEN/anti-GLP2 ELISA method. The rats were euthanized then necropsied and scored by gross examination of the intestines for the presence of adhesions; i.e., none=0, mild=1, moderate=2, or severe=3. The small intestines were removed and the length of each was recorded. In each small intestine, a longitudinal incision was made and the interior was examined. The degree and length of the ulcerated area was recorded as a score; i.e., none=0, few=1, multiple=2, or continuous=3. For TNFα determination, intestinal samples were thawed and homogenized in a total of 20 ml with DPBS. The supernatants were equilibrated to room temperature and assayed for TNFα by ELISA (R&D Systems, Cat. RTA00, lot 281687, exp. 7 Sep. 2011). The samples for Group 1 were assayed undiluted. The samples for Groups 2-7 were diluted 1:4. For histopathology, the small intestines were gently washed with saline to remove the fecal material and were blotted to remove excess fluid. Each small intestine was weighed then processed for histopathology examination to quantitate the degree of inflammation; i.e., 0.0%=0, 1-33%=1, 34-66%=2, 67-100%=3.

[5] = test system: small intestine growth in rats; assay: Intestinotrophic growth in normal rats (small intestine weight and length); type: in vivo, rat
Procedure: To determine the intestinotrophic properties of GLP2-XTEN, small intestine growth in rats was measured as a primary pharmacodynamic endpoint. […] GLP2-2G-XTEN was dosed at 25 nmol/kg once daily for 12 days. After sacrifice, a midline incision was made, the small intestines were removed, stretched to their maximum length and the length recorded. The fecal material was flushed from the lumen and the small intestinal wet weight recorded. The small intestine length and weight data were analyzed with an ANOVA model with a Tukey/Kramer post-hoc test for pairwise comparisons, with significance at p=0.05.

[6] = normal Sprague-Dawley rats, SC 12 days, peptide 12.5 nmol/kg twice daily, fusion protein 25 nmol/kg once daily

B1: GLP2-2G-XTEN_AE864: fusion protein of GLP-2 with glycine at position 2 linked at the C-terminus to XTEN AE864; sequence of FIG. 28 (SEQ ID NO: 798) (protein)
chain: HGDGSFSDEMNTILDNLAARDFINWLIQTKITDGGSPAGSPTSTEEGTSESATPESGPGTSTEPSEGSAPGSPAGSPTSTEEGTSTEPSEGSAPGTSTEPSEGSAPGTSESATPESGPGSEPATSGSETPGSEPATSGSETPGSPAGSPTSTEEGTSESATPESGPGTSTEPSEGSAPGTSTEPSEGSAPGSPAGSPTSTEEGTSTEPSEGSAPGTSTEPSEGSAPGTSESATPESGPGTSTEPSEGSAPGTSESATPESGPGSEPATSGSETPGTSTEPSEGSAPGTSTEPSEGSAPGTSESATPESGPGTSESATPESGPGSPAGSPTSTEEGTSESATPESGPGSEPATSGSETPGTSESATPESGPGTSTEPSEGSAPGTSTEPSEGSAPGTSTEPSEGSAPGTSTEPSEGSAPGTSTEPSEGSAPGTSTEPSEGSAPGSPAGSPTSTEEGTSTEPSEGSAPGTSESATPESGPGSEPATSGSETPGTSESATPESGPGSEPATSGSETPGTSESATPESGPGTSTEPSEGSAPGTSESATPESGPGSPAGSPTSTEEGSPAGSPTSTEEGSPAGSPTSTEEGTSESATPESGPGTSTEPSEGSAPGTSESATPESGPGSEPATSGSETPGTSESATPESGPGSEPATSGSETPGTSESATPESGPGTSTEPSEGSAPGSPAGSPTSTEEGTSESATPESGPGSEPATSGSETPGTSESATPESGPGSPAGSPTSTEEGSPAGSPTSTEEGTSTEPSEGSAPGTSESATPESGPGTSESATPESGPGTSESATPESGPGSEPATSGSETPGSEPATSGSETPGSPAGSPTSTEEGTSTEPSEGSAPGTSTEPSEGSAPGSEPATSGSETPGTSESATPESGPGTSTEPSEGSAPG
Cl [1]: 1.6 mL/h
T ½ [1]: 125 h
Vd [1]: 0.098 L/kg
AUCInf ([1]; iv, 2 mg/kg): 3,700,000 hr * ng/mL
Cl ([1]; iv, 2 mg/kg): 1.9 mL/h
T ½ ([1]; iv, 2 mg/kg): 110.0 h
Vd ([1]; iv, 2 mg/kg): 0.09 L/kg
AUCInf ([1]; sc, 2 mg/kg): 3,400,000 hr * ng/mL
T ½ ([1]; sc, 2 mg/kg): 120.0 h
Vd ([1]; sc, 2 mg/kg): 0.11 L/kg
Cl [2]: 17* ml/hr
T ½ [2]: 240* hr
Vd [2]: 91* mL/kg
apparent molecular weight ([3]; SEC, BioSep-SEC-s4000, 50 mM Phosphate pH 6.5, 300 mM NaCl, lot AP690): 1002 kDa
apparent molecular weight factor ([3]; apparent vs 83.1 kDa actual weight): 12.5
small intestine weight ([4]; 0.5 mg/kg peptide, both fusion protein groups, compared to diseased control Group 2, FIG. 21C): significant increase
ulceration score ([4]; 6 mg/kg fusion protein): not significantly different from the non-diseased control
scores of adhesions and transulceration ([4]; 2 and 6 mg/kg fusion protein): not significantly different from the non-diseased control
small intestine length ([4]; FIG. 21B): significant increase; also recorded: length equivalent to the non-diseased control
ulceration (gross pathology scoring of small intestine) ([4]; FIG. 21D): significant decreases in ulceration
small intestine inflammation score ([4]; FIG. 21F): neither the GLP-2-2G peptide nor the GLP-2-2G-XTEN fusion protein treatments showed a significant effect on inflammation
body weight at termination ([4]; compared to disease control (Group 2), FIG. 21A): demonstrated a significant increase
scores of adhesions and transulceration ([4]; compared to diseased control (Group 2), FIG. 21E): significant decreases
TNFα in small intestine (ELISA) ([4]; compared to diseased control Group 2, FIG. 21G): significantly decreased cytokine levels
efficacy in improving indomethacin-induced small intestine damage ([4]; equal nmol/kg dosing): as good or better than GLP2-2G peptide
small intestine growth compared with GLP2-2G peptide ([5]; equal nmol/kg dosing): as good or better than GLP2-2G peptide
increase in small intestine length [5, 6]: 9%
increase in small intestine weight [5, 6]: 31%
increase in small intestine length ([5]; normal rats, 25 nmol/kg once daily for 12 days): 10 cm
